The record followed here is patent publication US20250066745A1, “MUTANTS AND USE THEREOF” (BGI SHENZHEN, priority 2021, published 2025).

Assay [1] is described as follows: Luminescence activity assay of purified Gaussia luciferase mutants on coelenterazine. Further details: key to Activity of mutant relative to wild-type Gaussia luciferase without the signal peptide: ratio of mutant luminescence intensity to wild-type Gaussia luciferase. The note with it: Substrate CTZ (Table 16). Format: biochemical. The gist of the method:
(§1)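 Readout: luminescence intensity, as ratio to signal-peptide-free wild-type enzyme. Enzyme 1 μg/mL, substrate 100 μM stock, 10 μL + 90 μL; buffer 50 mM Tris-HCl pH 8.0, 100 mM NaCl, 0.1% Tween-20.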

Assay [2] can be described thus: Luminescence activity assay of purified Gaussia luciferase mutants on coelenterazine derivative ZS2. Format: biochemical. Further details: key to Activity of mutant relative to wild-type Gaussia luciferase without the signal peptide: ratio of mutant luminescence intensity to wild-type Gaussia luciferase. The note with it: Substrate ZS2 (Table 16). An outline of the steps: as §1

Where a chain is given by its changes, count along the chain named. In names and notes the source's numbering stands.

B1: V29A A30D V31I A32V S33N L40A: Gaussia luciferase mutant (protein)
chain: MGVKVLFALICIAVAEAKPTENNEDFNIADIVNNFATTDADADRGKLPGKKLPLEVLKEMEANARKAGCTRGCLICLSHIKCTPKMKKFIPGRCHTYEGDKESAQGGIGEAIVDIPEIPGFKDLEPMEQFIAQVDLCVDCTTGCLKGLANVQCSDLLKKWLPQRCATFASKIQGQVDKIKGAGGD
modifications: SIGNAL (1)..(17)
notes: Gaussia luciferase mutant
B1: the “Activity of mutant relative to wild-type Gaussia luciferase without the signal peptide” value in assay [1] came out at 1.046; in assay [2], 1.164.

B2: F26L N27D A30D V31L A32V S33N A36N T37A L40S: Gaussia luciferase mutant (protein)
chain: B1 chain with F26L, N27D, A29V, I31L, A36N, T37A, A40S
modifications: SIGNAL (1)..(17)
notes: Gaussia luciferase mutant
For the molecule B2, the “Activity of mutant relative to wild-type Gaussia luciferase without the signal peptide” value in assay [1] is 0.799; in assay [2] it was 1.802.

B3: V29L A30G A32V S33G A36N T37A L40S: Gaussia luciferase mutant (protein)
chain: B1 chain with A29L, D30G, I31V, N33G, A36N, T37A, A40S
modifications: SIGNAL (1)..(17)
notes: Gaussia luciferase mutant
As for B3, the “Activity of mutant relative to wild-type Gaussia luciferase without the signal peptide” value in assay [1] was found to be 0.764; in assay [2] it was 1.976.

B4: F26D N27D V290 A30D V31I S33R T37L: Gaussia luciferase mutant (protein)
chain: B1 chain with F26D, N27D, A29V, V32A, N33R, T37L, A40L
With B4, the “Activity of mutant relative to wild-type Gaussia luciferase without the signal peptide” value in assay [1] stood at 1.110; in assay [2], 0.213.

B5: F26I A30D A32V S33G A36D T37K L40V: Gaussia luciferase mutant (protein)
chain: B1 chain with F26I, A29V, I31V, N33G, A36D, T37K, A40V
modifications: SIGNAL (1)..(17)
notes: Gaussia luciferase mutant
Regarding B5, the “Activity of mutant relative to wild-type Gaussia luciferase without the signal peptide” value in assay [1] was 0.636; in assay [2], 2.392.

B6: F26I N27H V29G A32G S33D A36G T37L L40I: Gaussia luciferase mutant (protein)
chain: B1 chain with F26I, N27H, A29G, D30A, I31V, V32G, N33D, A36G, T37L, A40I
modifications: SIGNAL (1)..(17)
notes: Gaussia luciferase mutant
Take B6: the “Activity of mutant relative to wild-type Gaussia luciferase without the signal peptide” value in assay [1] is reported as 0.055; in assay [2], 0.479.

B7: F26L N27D V29P A30G V31I A32G S33A A36T T37C L40E I112T: Gaussia luciferase mutant (protein)
chain: B1 chain with F26L, N27D, A29P, D30G, V32G, N33A, A36T, T37C, A40E, I112T
modifications: SIGNAL (1)..(17)
notes: Gaussia luciferase mutant
Take B7: the entries for the “Activity of mutant relative to wild-type Gaussia luciferase without the signal peptide” value in assay [1] and in assay [2] were 0.001 and 0.395, respectively.

B8: F26C V29Y S33G A36I T37E L40T: Gaussia luciferase mutant (protein)
chain: B1 chain with F26C, A29Y, D30A, I31V, V32A, N33G, A36I, T37E, A40T
modifications: SIGNAL (1)..(17)
notes: Gaussia luciferase mutant
On to B8, for which the entries for the “Activity of mutant relative to wild-type Gaussia luciferase without the signal peptide” value in assay [1] and in assay [2] were 0.016 and 1.131, respectively.

B9: F26L N27D V29A V31L A32D S33N T37E L40T: Gaussia luciferase mutant (protein)
chain: B1 chain with F26L, N27D, D30A, I31L, V32D, T37E, A40T
modifications: SIGNAL (1)..(17)
notes: Gaussia luciferase mutant
Take B9: the “Activity of mutant relative to wild-type Gaussia luciferase without the signal peptide” value in assay [1] was 0.000; in assay [2], 0.191.

B10: F26L N27D V29D A30G S33N A36I T37D L40R: Gaussia luciferase mutant (protein)
chain: B1 chain with F26L, N27D, A29D, D30G, I31V, V32A, A36I, T37D, A40R
modifications: SIGNAL (1)..(17)
notes: Gaussia luciferase mutant
Regarding B10, the results for the “Activity of mutant relative to wild-type Gaussia luciferase without the signal peptide” value in assay [1] and in assay [2] were 0.726 and 1.989, respectively.

B11: F26C V29L A30D V31L A32V S33G L40I: Gaussia luciferase mutant (protein)
chain: B1 chain with F26C, A29L, I31L, N33G, A40I
modifications: SIGNAL (1)..(17)
notes: Gaussia luciferase mutant
In the case of B11, the “Activity of mutant relative to wild-type Gaussia luciferase without the signal peptide” value in assay [1] amounted to 0.000; in assay [2], 0.312.

B12: F26G N27Y A30D V31L A32V S33R A36M T37E L40G: Gaussia luciferase mutant (protein)
chain: B1 chain with F26G, N27Y, A29V, I31L, N33R, A36M, T37E, A40G
modifications: SIGNAL (1)..(17)
notes: Gaussia luciferase mutant
As to B12, the “Activity of mutant relative to wild-type Gaussia luciferase without the signal peptide” value is on record as 0.003 in assay [1] and 1.203 in assay [2].

B13: E102K S103T E110A: Gaussia luciferase mutant (protein)
chain: B1 chain with A29V, D30A, I31V, V32A, N33S, A40L, E102K, S103T, E110A
modifications: SIGNAL (1)..(17)
notes: Gaussia luciferase mutant
Regarding B13, the figures for the “Activity of mutant relative to wild-type Gaussia luciferase without the signal peptide” value in assay [1] and in assay [2] were 0.864 and 1.504, respectively.

B14: F26A N27D V29R A30G A32E S33G A36P L40A: Gaussia luciferase mutant (protein)
chain: B1 chain with F26A, N27D, A29R, D30G, I31V, V32E, N33G, A36P
modifications: SIGNAL (1)..(17)
notes: Gaussia luciferase mutant
Turning to B14, the “Activity of mutant relative to wild-type Gaussia luciferase without the signal peptide” value came out at 0.034 in assay [1] and 0.684 in assay [2].

B15: V29S A30G V31I A32V S33G A36D T37A: Gaussia luciferase mutant (protein)
chain: B1 chain with A29S, D30G, N33G, A36D, T37A, A40L
modifications: SIGNAL (1)..(17)
notes: Gaussia luciferase mutant
Turning to B15, the figures for the “Activity of mutant relative to wild-type Gaussia luciferase without the signal peptide” value in assay [1] and in assay [2] were 0.000 and 0.142, respectively.

B16: F26D N27H V29K A30G A32G S33L T37L L40R: Gaussia luciferase mutant (protein)
chain: B1 chain with F26D, N27H, A29K, D30G, I31V, V32G, N33L, T37L, A40R
modifications: SIGNAL (1)..(17)
notes: Gaussia luciferase mutant
In the case of B16, the “Activity of mutant relative to wild-type Gaussia luciferase without the signal peptide” value in assay [1] was 0.037; in assay [2], 0.381.

B17: F26I N27D V29S A30G V31L A32V S33D A36V T37E L40G: Gaussia luciferase mutant (protein)
chain: B1 chain with F26I, N27D, A29S, D30G, I31L, N33D, A36V, T37E, A40G
modifications: SIGNAL (1)..(17)
notes: Gaussia luciferase mutant
As for B17, the entries for the “Activity of mutant relative to wild-type Gaussia luciferase without the signal peptide” value in assay [1] and in assay [2] were 0.788 and 2.094, respectively.

B18: F26I V29F A30G A32E S33D A36N T37D L40T: Gaussia luciferase mutant (protein)
chain: B1 chain with F26I, A29F, D30G, I31V, V32E, N33D, A36N, T37D, A40T
modifications: SIGNAL (1)..(17)
notes: Gaussia luciferase mutant
B18: the entries for the “Activity of mutant relative to wild-type Gaussia luciferase without the signal peptide” value in assay [1] and in assay [2] were 1.120 and 0.000, respectively.

B19: F26I N27D V29D A30G A32E S33G A36T L40S del117-119 D139H: Gaussia luciferase mutant (protein)
chain: MGVKVLFALICIAVAEAKPTENNEDIDIDGVEGNFTTTDSDADRGKLPGKKLPLEVLKEMEANARKAGCTRGCLICLSHIKCTPKMKKFIPGRCHTYEGDKESAQGGIGEAIVDIPGFKDLEPMEQFIAQVDLCVHCTTGCLKGLANVQCSDLLKKWLPQRCATFASKIQGQVDKIKGAGGD
modifications: SIGNAL (1)..(17)
notes: Gaussia luciferase mutant
Regarding B19, the figures for the “Activity of mutant relative to wild-type Gaussia luciferase without the signal peptide” value in assay [1] and in assay [2] were 0.043 and 0.010, respectively.
